6 molecules from PMC9669019, “Molecular basis for integrin adhesion receptor binding to p21-activated kinase 4 (PAK4)” (Communications Biology, 2022) can be followed below.

Numbering of substitutions follows the chain as printed. Names may count otherwise.

B1: D444A: GFP-tagged PAK4 D444A mutant; catalytic domain (Fig 4G) or full-length (Fig 4H) (protein, UniProt O96013 1-591, looked up, variant D444A)
Serine/threonine-protein …: MFGKRKKRVEISAPSNFEHRVHTGFDQHEQKFTGLPRQWQSLIEESARRPKPLVDPACITSIQPGAPKTIVRGSKGAKDGALTLLLDEFENMSVTRSNSLRRDSPPPPARARQENGMPEEPATTARGGPGKAGSRGRFAGHSEAGGGSGDRRRAGPEKRPKSSREGSGGPQESSRDKRPLSGPDVGTPQPAGLASGAKLAAGRPFNTYPRADTDHPSRGAQGEPHDVAPNGPSAGGLAIPQSSSSSSRPPTRARGAPSPGVLGPHASEPQLAPPACTPAAPAVPGPPGPRSPQREPQRVSHEQFRAALQLVVDPGDPRSYLDNFIKIGEGSTGIVCIATVRSSGKLVAVKKMDLRKQQRRELLFNEVVIMRDYQHENVVEMYNSYLVGDELWVVMEFLEGGALTDIVTHTRMNEEQIAAVCLAVLQALSVLHAQGVIHRDIKSASILLTHDGRVKLSDFGFCAQVSKEVPRRKSLVGTPYWMAPELISRLPYGPEVDIWSLGIMVIEMVDGEPPYFNEPPLKAMKMIRDNLPPRLKNLHKVSPSLKGFLDRLLVRDPAQRATAAELLKHPFLAKAGPPASIVPLMRQNRTR
modifications: GFP tag; catalytic domain or full-length
B2: E512A: GFP-tagged PAK4 E512A mutant; catalytic domain (Fig 4G) or full-length (Fig 4H) (protein, UniProt O96013 1-591, looked up, variant E512A)
Serine/threonine-protein …: B1 Serine/threonine-protein … with A444D, E512A
modifications: GFP tag; catalytic domain or full-length
B3: D444R: GFP-tagged PAK4 D444R mutant; catalytic domain (Fig 4G) or full-length (Fig 4H) (protein, UniProt O96013 1-591, looked up, variant D444R)
Serine/threonine-protein …: B1 Serine/threonine-protein … with A444R
modifications: GFP tag; catalytic domain or full-length
B4: M482K: GFP-tagged PAK4 M482K mutant; catalytic domain (Fig 4G) or full-length (Fig 4H) (protein, UniProt O96013 1-591, looked up, variant M482K)
Serine/threonine-protein …: B1 Serine/threonine-protein … with A444D, M482K
modifications: GFP tag
B5: E512R: GFP-tagged PAK4 E512R mutant; catalytic domain (Fig 4G) or full-length (Fig 4H) (protein, UniProt O96013 1-591, looked up, variant E512R)
Serine/threonine-protein …: B1 Serine/threonine-protein … with A444D, E512R
modifications: GFP tag
B6: Q358A: GFP-tagged PAK4 Q358A mutant; catalytic domain (Fig 4G) or full-length (Fig 4H) (protein, UniProt O96013 1-591, looked up, variant Q358A)
Serine/threonine-protein …: B1 Serine/threonine-protein … with Q358A, A444D
modifications: GFP tag

The first assay relates to integrin β5 tail. Put plainly: Pull-down of wild-type and mutated GFP-PAK4 catalytic domain by wild-type integrin β5 tail. Type of assay: binding. The following applies: Figure 4G source data; PAK4 catalytic domain; replicate 1. On the procedure: (§1) Pull down assays were performed as previously described[45],[60]. Briefly, constructs encoding an N-terminal His-tag followed by a helical region, a 4-glycine spacer, and an integrin cytoplasmic tail sequence were produced in BL21 (DE3) bacteria. Following bacterial cell lysis, recombinant protein was bound to Ni-NTA beads, eluted with imidazole, dialyzed and further purified by reverse-phase high-performance liquid chromatography (HPLC). Purified protein was lyophilized for storage and was used to coat fresh Ni-NTA beads to generate an affinity matrix for pull-down assays.
(§2) For pulldowns from cell lysates, human PAK4 constructs were generated in pEGFP (Takara Bio Inc.) by PCR amplification from a pLX304 PAK4 isoform 1 (Uniprot O96013-1) construct kindly provided by Michael Calderwood (Dana-Farber Cancer Institute). Mutations and deletions were introduced by QuikChange mutagenesis or PCR amplification. Chinese hamster ovary (CHO) cells were seeded on 10 cm tissue culture dishes and transiently transfected with GFP-tagged constructs using polyethylenimine (Polysciences). After 24 h, cells were harvested and lysed in buffer X (1 mM NaVO4, 50 mM NaF, 40 mM sodium pyrophosphate, 50 mM NaCl, 150 mM sucrose, 10 mM Pipes, pH 6.8) containing 0.5% Triton X-100, 0.2% deoxycholic acid, and complete EDTA-free protease inhibitor mixture (Roche, Indianapolis, IN, USA) for 15 min at 4 °C. After clarification by centrifugation, lysate was diluted in buffer X-T (buffer X with 0.05% Triton X-100) and incubated with His-tagged integrin tails coupled to Ni-NTA beads for 4 h with rocking at 4 °C. For experiments using purified PAK4cat, protein was incubated with His-tagged integrin tails coupled to Ni-NTA beads in buffer X-T for 2 h with rocking at 4 °C. Beads were then washed three times with buffer X-T, and bound proteins were fractionated by reducing SDS-PAGE and analyzed by immunoblotting with anti-GFP antibodies (600-101-215, Rockland). Immunoblots were imaged on an Odyssey IR imaging system (Li-Cor; Lincoln, NE, USA) and analyzed using Image Studio Lite (Li-Cor; Lincoln, NE, USA). For the quantification of binding from immunoblots, the fluorescence intensity of the band corresponding to bound material was quantified as a fraction of the fluorescence of the input material band for each condition. Loading of integrin tails was assessed by Coomassie Blue staining. Data were analyzed using GraphPad Prism.
For the molecule B1, the “Binding to wild-type integrin β5 tail, normalized to cat-WT” value (from here on “Binding … normalized to cat-WT”) was 0.04069.

As to B2, the “Binding … normalized to cat-WT” value came to 0.4077.

In the case of B3, the “Binding … normalized to cat-WT” value is on record as 0.1667.

Take B4: the “Binding … normalized to cat-WT” value turned out to be 0.517.

Regarding B5, the “Binding … normalized to cat-WT” value stood at 0.1343.

Regarding B6, the “Binding … normalized to cat-WT” value is on record as 0.8373.

Staying with this assay, now noted: Figure 4G; replicate 2.
Take B1: the “Binding … normalized to cat-WT” value stood at 0.001166.

Regarding B2, the “Binding … normalized to cat-WT” value is on record as 0.4295.

On to B3, for which the “Binding … normalized to cat-WT” value was determined as 0.1098.

With B4, the “Binding … normalized to cat-WT” value amounted to 0.2755.

For the molecule B5, the “Binding … normalized to cat-WT” value was found to be 0.09959.

As to B6, the “Binding … normalized to cat-WT” value is 0.4614.

Staying with this assay, now noted: Figure 4G; replicate 3.
Turning to B1, the “Binding … normalized to cat-WT” value was found to be 0.2433.

B2: the “Binding … normalized to cat-WT” value worked out at 0.5407.

With B3, the “Binding … normalized to cat-WT” value is reported as 2.475e-5.

On to B4, for which the “Binding … normalized to cat-WT” value stood at 0.5038.

Turning to B5, the “Binding … normalized to cat-WT” value was 0.2543.

For B6, the “Binding … normalized to cat-WT” value is reported as 0.71.

Staying with this assay, now noted: Figure 4G; replicate 4.
For B1, the “Binding … normalized to cat-WT” value is 0.09577.

In the case of B2, the “Binding … normalized to cat-WT” value came to 0.2568.

Take B3: the “Binding … normalized to cat-WT” value came to 0.334.

B4: the “Binding … normalized to cat-WT” value is listed as 0.2427.

As for B5, the “Binding … normalized to cat-WT” value came out at 0.09217.

As for B6, the “Binding … normalized to cat-WT” value is given as 1.075.

The assay is the same for the next values; noted with them: Figure 4G; replicate 5.
In the case of B1, the “Binding … normalized to cat-WT” value is on record as 3.582e-6.

Regarding B2, the “Binding … normalized to cat-WT” value worked out at 0.7435.

Regarding B3, the “Binding … normalized to cat-WT” value came to 0.004908.

Take B4: the “Binding … normalized to cat-WT” value stood at 0.2915.

Take B5: the “Binding … normalized to cat-WT” value is recorded as 0.08446.

For B6, the “Binding … normalized to cat-WT” value came out at 0.4677.

The same assay, now with this note: Figure 4G; replicate 6.
B1: the “Binding … normalized to cat-WT” value stood at 0.09749.

B2: the “Binding … normalized to cat-WT” value was 0.2789.

For the molecule B3, the “Binding … normalized to cat-WT” value worked out at 0.1746.

As for B4, the “Binding … normalized to cat-WT” value is 0.007133.

For the molecule B5, the “Binding … normalized to cat-WT” value was found to be 0.3379.

In the case of B6, the “Binding … normalized to cat-WT” value is 1.0032.

Staying with this assay, now noted: Figure 4G; replicate 7.
Take B1: the “Binding … normalized to cat-WT” value was determined as 0.0832.

With B2, the “Binding … normalized to cat-WT” value came to 0.1085.

Take B3: the “Binding … normalized to cat-WT” value was 0.115.

Consider B6, for which the “Binding … normalized to cat-WT” value was determined as 1.283.

Still in this assay, the particulars now being: Figure 4G; replicate 8.
As to B6, the “Binding … normalized to cat-WT” value is reported as 1.183.

The assay is the same for the next values; noted with them: Figure 4G; replicate 9.
As to B6, the “Binding … normalized to cat-WT” value amounted to 0.828.

The assay is the same for the next values; noted with them: catalytic domain (Fig. 4g) and full-length PAK4 (Fig. 4h).
As for B1, the “Effect of PAK4 mutation on pull-down by integrin β5” value (shortened to “Effect of PAK4 mutation”) is “strong inhibition”.

B4: the “Effect of PAK4 mutation” value is “moderate effect”.

Take B5: the “Effect of PAK4 mutation” value is given as “strong inhibition”.

Regarding B6, the “Effect of PAK4 mutation” value is recorded as “no effect on binding”.

The next assay relates to integrin β5 tail. Nature of the assay: Pull-down of wild-type and mutated full-length GFP-PAK4 by wild-type integrin β5 tail. As to conditions: Figure 4H source data; full-length PAK4; experiment row r4. Type of assay: binding. How it is done:
as §1, §2
In the case of B1, the “Binding to wild-type integrin β5 tail, normalized to FL-WT” value (“Binding … normalized to FL-WT” below) was found to be 0.235.

Consider B3, for which the “Binding … normalized to FL-WT” value worked out at 0.011.

Consider B4, for which the “Binding … normalized to FL-WT” value came to 0.259.

Consider B6, for which the “Binding … normalized to FL-WT” value is given as 0.221.

The same assay, now with this note: Figure 4H; experiment row r5.
As for B1, the “Binding … normalized to FL-WT” value was determined as 0.008.

Turning to B2, the “Binding … normalized to FL-WT” value came to 0.029.

Take B4: the “Binding … normalized to FL-WT” value was found to be 1.377.

On to B5, for which the “Binding … normalized to FL-WT” value stood at 0.472.

Consider B6, for which the “Binding … normalized to FL-WT” value stood at 0.9415.

The same assay, now with this note: Figure 4H; experiment row r6.
Turning to B2, the “Binding … normalized to FL-WT” value worked out at 0.62.

B4: the “Binding … normalized to FL-WT” value was determined as 0.432.

Turning to B5, the “Binding … normalized to FL-WT” value was 0.89.

Still in this assay, the particulars now being: Figure 4H; experiment row r7.
B2: the “Binding … normalized to FL-WT” value was found to be 0.561.

Take B3: the “Binding … normalized to FL-WT” value is recorded as 0.517.

For B4, the “Binding … normalized to FL-WT” value came out at 0.512.

For B5, the “Binding … normalized to FL-WT” value came out at 0.486.

The assay is the same for the next values; noted with them: Figure 4H; experiment row r8.
For B2, the “Binding … normalized to FL-WT” value turned out to be 0.262.

Turning to B4, the “Binding … normalized to FL-WT” value was 0.381.

For B5, the “Binding … normalized to FL-WT” value is listed as 0.106.

As to B6, the “Binding … normalized to FL-WT” value turned out to be 0.58.

Staying with this assay, now noted: Figure 4H; experiment row r9.
In the case of B2, the “Binding … normalized to FL-WT” value came to 0.4.

Turning to B5, the “Binding … normalized to FL-WT” value stood at 0.64.

The assay is the same for the next values; noted with them: Figure 4H; experiment row r10.
Consider B4, for which the “Binding … normalized to FL-WT” value is on record as 1.044.

For the molecule B6, the “Binding … normalized to FL-WT” value came out at 3.01.

The assay is the same for the next values; noted with them: Figure 4H; experiment row r11.
For the molecule B4, the “Binding … normalized to FL-WT” value was 0.278.

Still in this assay, the particulars now being: Figure 4H; experiment row r13.
For B3, the “Binding … normalized to FL-WT” value was 0.253.

The assay is the same for the next values; noted with them: Figure 4H; experiment row r14.
As to B1, the “Binding … normalized to FL-WT” value was determined as 0.233.

Turning to B3, the “Binding … normalized to FL-WT” value is 0.329.

The assay is the same for the next values; noted with them: Figure 4H; experiment row r15.
In the case of B1, the “Binding … normalized to FL-WT” value turned out to be 0.015.

In the case of B3, the “Binding … normalized to FL-WT” value is 0.208.

Staying with this assay, now noted: Figure 4H; experiment row r17.
With B2, the “Binding … normalized to FL-WT” value is 0.03.

As for B4, the “Binding … normalized to FL-WT” value came to 0.149.

As for B6, the “Binding … normalized to FL-WT” value is reported as 1.265.

Still in this assay, the particulars now being: Figure 4H; experiment row r18.
As for B6, the “Binding … normalized to FL-WT” value amounted to 0.66.

The same assay, now with this note: Figure 4H; experiment row r19.
Take B2: the “Binding … normalized to FL-WT” value came out at 0.1.

On to B4, for which the “Binding … normalized to FL-WT” value came to 0.8.

Regarding B6, the “Binding … normalized to FL-WT” value turned out to be 1.25.
